Results reported in patent publication US20030092095.

T1: GST-RIZ332 (GST fusion of human RIZ1 residues 1-332)
T1 chain: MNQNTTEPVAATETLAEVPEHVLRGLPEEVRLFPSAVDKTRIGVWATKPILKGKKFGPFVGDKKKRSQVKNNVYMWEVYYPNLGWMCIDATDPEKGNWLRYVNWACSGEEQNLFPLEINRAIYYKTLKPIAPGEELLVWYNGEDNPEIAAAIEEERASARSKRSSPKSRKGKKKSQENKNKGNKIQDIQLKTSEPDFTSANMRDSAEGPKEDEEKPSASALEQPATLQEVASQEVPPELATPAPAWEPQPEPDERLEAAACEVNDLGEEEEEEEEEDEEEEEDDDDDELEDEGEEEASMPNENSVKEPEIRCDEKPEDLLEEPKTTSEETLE

B1: GST-RIZ332 (GST fusion of human RIZ1 residues 1-332) (protein)
chain: MNQNTTEPVAATETLAEVPEHVLRGLPEEVRLFPSAVDKTRIGVWATKPILKGKKFGPFVGDKKKRSQVKNNVYMWEVYYPNLGWMCIDATDPEKGNWLRYVNWACSGEEQNLFPLEINRAIYYKTLKPIAPGEELLVWYNGEDNPEIAAAIEEERASARSKRSSPKSRKGKKKSQENKNKGNKIQDIQLKTSEPDFTSANMRDSAEGPKEDEEKPSASALEQPATLQEVASQEVPPELATPAPAWEPQPEPDERLEAAACEVNDLGEEEEEEEEEDEEEEEDDDDDELEDEGEEEASMPNENSVKEPEIRCDEKPEDLLEEPKTTSEETLE
B2: GSTRIZPBD, GST-hRIZ1(1514-1680) (GST fusion of the PR-binding domain of human RIZ1) (protein)
chain: HRRRTADAEIKMQSMQTPLGKTRARSSGPTQVPLPSSSFRSKQNVKFAASVKSKKPSSSSLRNSSPIRMAKITHVEGKKPKAVAKNHSAQLSSKTSRSLHVRVQKSKAVLQSKSTLASKKRTDRFNIKSRERSGGPVTRSLQLAAAADLSENKREDGSAKQELKDFS
B3: GST-RIZ161 (GST fusion of human RIZ1 residues 1-161) (protein)
chain: MNQNTTEPVAATETLAEVPEHVLRGLPEEVRLFPSAVDKTRIGVWATKPILKGKKFGPFVGDKKKRSQVKNNVYMWEVYYPNLGWMCIDATDPEKGNWLRYVNWACSGEEQNLFPLEINRAIYYKTLKPIAPGEELLVWYNGEDNPEIAAAIEEERASARS
B4: full length RIZ1 protein expressed in mammalian cells from adenovirus AdRIZ1 (protein)
chain: MNQNTTEPVAATETLAEVPEHVLRGLPEEVRLFPSAVDKTRIGVWATKPILKGKKFGPFVGDKKKRSQVKNNVYMWEVYYPNLGWMCIDATDPEKGNWLRYVNWACSGEEQNLFPLEINRAIYYKTLKPIAPGEELLVWYNGEDNPEIAAAIEEERASARSKRSSPKSRKGKKKSQENKNKGNKIQDIQLKTSEPDFTSANMRDSAEGPKEDEEKPSASALEQPATLQEVASQEVPPELATPAPAWEPQPEPDERLEAAACEVNDLGEEEEEEEEEDEEEEEDDDDDELEDEGEEEASMPNENSVKEPEIRCDEKPEDLLEEPKTTSEETLEDCSEVTPAMQIPRTKEEANGDVFETFMFPCQHCERKFTTKQGLERHMHIHISTVNHAFKCKYCGKAFGTQINRRRHERRHEAGLKRKPSQTLQPSEDLADGKASGENVASKDDSSPPSLGPDCLIMNSEKASQDTINSSVVEENGEVKELHPCKYCKKVFGTHTNMRRHQRRVHERHLIPKGVRRKGGLEEPQPPAEQAQATQNVYVPSTEPEEEGEADDVYIMDISSNISENLNYYIDGKIQTNNNTSNCDVIEMESASADLYGINCLLTPVTVEITQNIKTTQVPVTEDLPKEPLGSTNSEAKKRRTASPPALPKIKAETDSDPMVPSCSLSLPLSISTTEAVSFHKEKSVYLSSKLKQLLQTQDKLTPAGISATEIAKLGPVCVSAPASMLPVTSSRFKRRTSSPPSSPQHSPALRDFGKPSDGKAAWTDAGLTSKKSKLESHSDSPAWSLSGRDERETVSPPCFDEYKMSKEWTASSAFSSVCNQQPLDLSSGVKQKAEGTGKTPVQWESVLDLSVHKKHCSDSEGKEFKESHSVQPTCSAVKKRKPTTCMLQKVLLNEYNGIDLPVENPADGTRSPSPCKSLEAQPDPDLGPGSGFPAPTVESTPDVCPSSPALQTPSLSSGQLPPLLIPTDPSSPPPCPPVLTVATPPPPLLPTVPLPAPSSSASPHPCPSPLSNATAQSPLPILSPTVSPSPSPIPPVEPLMSAASPGPPTLSSSSSSSSSSSSFSSSSSSSSPSPPPLSAISSVVSSGDNLEASLPMISFKQEELENEGLKPREEPQSAAEQDVVVQETFNKNFVCNVCESPFLSIKDLTKHLSIHAEEWPFKCEFCVQLFKDKTDLSEHRFLLHGVGNIFVCSVCKKEFAFLCNLQQHQRDLHPDKVCTHHEFESGTLRPQNFTDPSKAHVEHMQSLPEDPLETSKEEEELNDSSEELYTTIKIMASGIKTKDPDVRLGLNQHYPSFKPPPFQYHHRNPMGIGVTATNFTTHNIPQTFTTAIRCTKCGKGVDNMPELHKHILACASASDKKRYTPKKNPVPLKQTVQPKNGVVVLDNSGKNAFRRMGQPKRLNFSVELSKMSSNKLKLNALKKKNQLVQKAILQKNKSAKQKADLKNACESSSHICPYCNREFTYIGSLNKHAAFSCPKKPLSPPKKKVSHSSKKGGHSSPASSDKNSNSNHRRRTADAEIKMQSMQTPLGKTRARSSGPTQVPLPSSSFRSKQNVKFAASVKSKKPSSSSLRNSSPIRMAKITHVEGKKPKAVAKNHSAQLSSKTSRSLHVRVQKSKAVLQSKSTLASKKRTDRFNIKSRERSGGPVTRSLQLAAAADLSENKREDGSAKQELKDFSYSLRLASRCSPPAAPYITRQYRKVKAPAAAQFQGPFFKE
B5: GST-RIZ200 (GST fusion of human RIZ1 residues 1-200) (protein)
chain: MNQNTTEPVAATETLAEVPEHVLRGLPEEVRLFPSAVDKTRIGVWATKPILKGKKFGPFVGDKKKRSQVKNNVYMWEVYYPNLGWMCIDATDPEKGNWLRYVNWACSGEEQNLFPLEINRAIYYKTLKPIAPGEELLVWYNGEDNPEIAAAIEEERASARSKRSSPKSRKGKKKSQENKNKGNKIQDIQLKTSEPDFTSA
B6: GST-RIZ200 point mutant A159V (protein)
chain: MNQNTTEPVAATETLAEVPEHVLRGLPEEVRLFPSAVDKTRIGVWATKPILKGKKFGPFVGDKKKRSQVKNNVYMWEVYYPNLGWMCIDATDPEKGNWLRYVNWACSGEEQNLFPLEINRAIYYKTLKPIAPGEELLVWYNGEDNPEIAAAIEEERASVRSKRSSPKSRKGKKKSQENKNKGNKIQDIQLKTSEPDFTSA
B7: GST-RIZ200 point mutant I188V (protein)
chain: MNQNTTEPVAATETLAEVPEHVLRGLPEEVRLFPSAVDKTRIGVWATKPILKGKKFGPFVGDKKKRSQVKNNVYMWEVYYPNLGWMCIDATDPEKGNWLRYVNWACSGEEQNLFPLEINRAIYYKTLKPIAPGEELLVWYNGEDNPEIAAAIEEERASARSKRSSPKSRKGKKKSQENKNKGNKIQDVQLKTSEPDFTSA
B8: GST-RIZ200 point mutant C106Y (protein)
chain: MNQNTTEPVAATETLAEVPEHVLRGLPEEVRLFPSAVDKTRIGVWATKPILKGKKFGPFVGDKKKRSQVKNNVYMWEVYYPNLGWMCIDATDPEKGNWLRYVNWAYSGEEQNLFPLEINRAIYYKTLKPIAPGEELLVWYNGEDNPEIAAAIEEERASARSKRSSPKSRKGKKKSQENKNKGNKIQDIQLKTSEPDFTSA

Assays:
[1] = target: histone H4 (free histones acid-extracted from human cancer cells A549 or U2OS), P62805
[2] = target: T1, GST-RIZ332 (GST fusion of human RIZ1 …)
[3] = target: H3 N terminus 1-20 residue peptide (non-acetylated), P68431
[4] = target: histone H3 (free histones acid-extracted from human cancer cells A549 or U2OS), P68431
[5] = target: H3 N terminus 1-20 residue peptide acetylated on K9 and K14, P68431
[6] = target: histone H1 (free histones acid-extracted from human cancer cells A549 or U2OS), P07305
Sequence of histone H1 (free histones acid-extracted from human cancer cells A549 or U2OS), P07305 (P07305 whole entry, looked up): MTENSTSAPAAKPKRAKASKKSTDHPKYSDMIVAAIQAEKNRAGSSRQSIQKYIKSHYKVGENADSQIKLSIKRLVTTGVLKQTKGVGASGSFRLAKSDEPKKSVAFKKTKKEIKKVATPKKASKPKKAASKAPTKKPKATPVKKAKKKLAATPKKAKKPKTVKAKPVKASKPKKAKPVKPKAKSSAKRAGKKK

Protein | histone methyltransferase activity in vitro (3H-SAM, SDS-PAGE, fluorography) [1] | other results
B1 | A GST fusion protein expressing the N-terminal 332-residue peptide showed similar activities to the N-terminal 200-residue peptide in methylating H4 | –
B2 | GSTRIZPBD protein alone showed HMT activity, specifically on H4 | histone methyltransferase activity in vitro with both proteins present [2]: A synergistic enhancement (more than additive effects) of HMT activity was observed when GSTRIZ322 and GSTRIZPBD were both present in HMT reactions
B3 | GST alone or a protein consisting of residues 1-161 lacked HMT activity | –
B4 | – | histone methyltransferase activity of RIZ1 immunoprecipitates on free histones [1]: Immunoprecipitated products by RIZ1 serum from RIZ1-expressing extracts caused methylation of H1, H3, and H4; in vitro peptide methylation by immunoprecipitated RIZ1, then peptide sequencing [3]: A peptide consisting the N-terminal 1-20 residues of H3 was indeed methylated in vitro by immunoprecipitated RIZ1 protein ... A single radioactive peak at lysine 9 was observed; histone methyltransferase activity of RIZ1 immunoprecipitates on free histones [4]: Immunoprecipitated products by RIZ1 serum from RIZ1-expressing extracts caused methylation of H1, H3, and H4; in vitro peptide methylation by immunoprecipitated RIZ1 [5]: a peptide containing acetylated K9 and K14 was not methylated; in vitro peptide methylation by RIZ1, then HPLC purification and sequencing (H1 peptide (aa 15-37)): A H1 peptide (aa 15-37) was methylated by RIZ1 in vitro ... lysine 25 was methylated by RIZ1; histone methyltransferase activity of RIZ1 immunoprecipitates on free histones [6]: Immunoprecipitated products by RIZ1 serum from RIZ1-expressing extracts caused methylation of H1, H3, and H4
B5 | Specific labeling of histone H4 was observed in the presence of purified GST product consisting of residues 1-200 of RIZ1 | –
B6 | missense mutations found in tumors, C106Y, I188V, and A159V, abolished HMT activity | –
B7 | missense mutations found in tumors, C106Y, I188V, and A159V, abolished HMT activity | –
B8 | missense mutations found in tumors, C106Y, I188V, and A159V, abolished HMT activity | –
